Laboratory results taken from US5786328, “Use of kunitz type plasma kallikrein inhibitors” (Genentech, Inc., dated 1998).
Where no end group is shown, it is not given here.

Legend:
Assay in all cases: cell-based or functional assay
[1] = target: Human thrombin (human, UniProt P00734)
[2] = target: Human plasmin (human, UniProt P00747)
[3] = target: T1, Human Factor XIIa (human, UniProt P00748)
T1 sequence 1: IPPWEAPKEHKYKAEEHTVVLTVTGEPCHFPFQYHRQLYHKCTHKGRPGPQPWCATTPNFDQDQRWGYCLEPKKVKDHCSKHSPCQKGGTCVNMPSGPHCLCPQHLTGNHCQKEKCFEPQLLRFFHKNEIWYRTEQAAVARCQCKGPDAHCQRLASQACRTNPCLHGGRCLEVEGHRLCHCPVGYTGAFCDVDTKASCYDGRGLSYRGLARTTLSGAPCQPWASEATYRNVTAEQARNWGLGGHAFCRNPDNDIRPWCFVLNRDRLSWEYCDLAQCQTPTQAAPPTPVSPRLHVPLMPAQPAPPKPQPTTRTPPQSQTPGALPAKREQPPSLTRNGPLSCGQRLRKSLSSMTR
T1 sequence 2: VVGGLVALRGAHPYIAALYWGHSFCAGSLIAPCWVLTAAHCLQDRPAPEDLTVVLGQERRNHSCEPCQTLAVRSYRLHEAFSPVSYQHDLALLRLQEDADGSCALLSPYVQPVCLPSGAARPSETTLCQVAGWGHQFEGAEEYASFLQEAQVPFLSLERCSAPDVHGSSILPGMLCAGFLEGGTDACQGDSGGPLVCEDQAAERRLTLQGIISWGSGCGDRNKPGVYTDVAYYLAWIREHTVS

[4] = target: Human Factor Xa (human, UniProt P00742)
[5] = target: Human activated protein C (human, UniProt P04070)

fraction of remaining proteolytic activity with 100 nM inhibitor [1]: 0.92 fraction of uninhibited rate
fraction of remaining proteolytic activity with 100 nM inhibitor [2]: 0.62 fraction of uninhibited rate
fraction of remaining proteolytic activity with 100 nM inhibitor [3]: 0.97 fraction of uninhibited rate
fraction of remaining proteolytic activity with 100 nM inhibitor [4]: 0.89 fraction of uninhibited rate
fraction of remaining proteolytic activity with 100 nM inhibitor [5]: 0.87 fraction of uninhibited rate
B1: APPI (Alzheimer's amyloid β-protein precursor inhibitor) (other)
chain: VREVCSEQAETGPCRAMISRWYFDVTEGKCAPFFYGGCGGNRNNFDTEEYCMAVCGSA
modifications: not fully specified (bridges); ends and bridges not checked
